Target: HLA-A*02:01 (Homo sapiens, UniProt P04439, D140Y/D185E/D98H/E176V/E277Q/G131W/G231S/I119V/I121R/I166T/I218V/L300P/L318F/N151K/N90K/P208A/P217A/Q86G/Q94H/R138H/R169H/T345S)
Assay: MHC binding assay: UV-ligand exchange and β2m ELISA (peptide exchange yield, Table 7)
Conditions: binding of HLA-class I restricted peptides to HLA-A*02:01, UV-ligand exchange
Source text: Candidate peptides for T cell based therapies according to the present invention were further tested for their MHC binding capacity (affinity). The individual peptide-MHC complexes were produced by UV-ligand exchange, where a UV-sensitive peptide is cleaved upon UV-irradiation, and exchanged with the peptide of interest as analyzed. Only peptide candidates that can effectively bind and stabilize the peptide-receptive MHC molecules prevent dissociation of the MHC complexes. To determine the yield of the exchange reaction, an ELISA was performed based on the detection of the light chain (β2 m) of stabilized MHC complexes. The assay was performed as generally described in Rodenko et al. (Rodenko et al., 2006).
96 well MAXISorp plates (NUNC) were coated over night with 2 ug/ml streptavidin in PBS at room temperature, washed 4× and blocked for 1 h at 37° C. in 2% BSA containing blocking buffer. Refolded HLA-A*02:01/MLA-001 monomers served as standards, covering the range of 15-500 ng/ml. Peptide-MHC monomers of the UV-exchange reaction were diluted 100 fold in blocking buffer. Samples were incubated for 1 h at 37° C., washed four times, incubated with 2 ug/ml HRP conjugated anti-β2 m for 1 h at 37° C., washed again and detected with TMB solution that is stopped with […]. Absorption was measured at 450 nm. Candidate peptides that show a high exchange yield (preferably higher than 50%, most preferred higher than 75%) are generally preferred for a generation and production of antibodies or fragments thereof, and/or T cell receptors or fragments thereof, as they show sufficient avidity to the MHC molecules and prevent dissociation of the MHC complexes.

| Substance | Peptide exchange (MHC class I binding score, peptide exchange yield) |
| --- | --- |
| 3 (RVIDDSLVVGV; listed as Homo sapiens) [compound 3] | +++ (≥50% = +++) |
| 4 (VLFGELPAL; listed as Homo sapiens) [compound 4] | +++ (≥50% = +++) |
| 7 (ALLQALMEL; listed as Homo sapiens) [compound 7] | +++ (≥50% = +++) |
| 9 (SLITGQDLLSV; listed as Homo sapiens) [compound 9] | +++ (≥50% = +++) |
| 13 (RLHDENILL; listed as Homo sapiens) [compound 13] | +++ (≥50% = +++) |
| 14 (YTFSGDVQL; listed as Homo sapiens) [compound 14] | +++ (≥50% = +++) |
| 17 (GLLPSAESIKL; listed as Homo sapiens) [compound 17] | ++++ (≥75% = ++++) |
| 20 (ALVEKGEFAL; listed as Homo sapiens) [compound 20] | ++ (≥20% = ++) |
| 21 (YLMDDFSSL; listed as Homo sapiens) [compound 21] | +++ (≥50% = +++) |
| 22 (LMYPYIYHV; listed as Homo sapiens) [compound 22] | +++ (≥50% = +++) |
| 23 (ALLSPLSLA; listed as Homo sapiens) [compound 23] | +++ (≥50% = +++) |
| 24 (KVWSDVTPL; listed as Homo sapiens) [compound 24] | +++ (≥50% = +++) |
| 30 (IITEVITRL; listed as Homo sapiens) [compound 30] | +++ (≥50% = +++) |
| 35 (VIIKGLEEI; listed as Homo sapiens) [compound 35] | ++ (≥20% = ++) |
| 36 (TVLQELINV; listed as Homo sapiens) [compound 36] | +++ (≥50% = +++) |
| 38 (VLQQESNFL; listed as Homo sapiens) [compound 38] | ++ (≥20% = ++) |
| 40 (KIWEELSVLEV; listed as Homo sapiens) [compound 40] | +++ (≥50% = +++) |
| 42 (KQMSISTGL; listed as Homo sapiens) [compound 42] | ++ (≥20% = ++) |

| Substance | Peptide exchange (MHC class I binding score, peptide exchange yield) |
| --- | --- |
| 45 (FLPVSVVYV; listed as Homo sapiens) [compound 45] | +++ (≥50% = +++) |
| 47 (GLNGFNVLL; listed as Homo sapiens) [compound 47] | +++ (≥50% = +++) |
| 48 (KISDFGLATV; listed as Homo sapiens) [compound 48] | +++ (≥50% = +++) |
| 49 (KLIGNIHGNEV; listed as Homo sapiens) [compound 49] | ++ (≥20% = ++) |
| 50 (ILLSVLHQL; listed as Homo sapiens) [compound 50] | +++ (≥50% = +++) |
| 51 (LDSEALLTL; listed as Homo sapiens) [compound 51] | ++ (≥20% = ++) |
| 52 (TIGIPFPNV; listed as Homo sapiens) [compound 52] | ++ (≥20% = ++) |
| 53 (AQHLSTLLL; listed as Homo sapiens) [compound 53] | + (≥10% = +) |
| 54 (YLVPGLVAA; listed as Homo sapiens) [compound 54] | +++ (≥50% = +++) |
| 55 (HLFDKIIKI; listed as Homo sapiens) [compound 55] | +++ (≥50% = +++) |
| 60 (YLFSQGLQGL; listed as Homo sapiens) [compound 60] | +++ (≥50% = +++) |
| 62 (SLVENIHVL; listed as Homo sapiens) [compound 62] | +++ (≥50% = +++) |
| 64 (SLYAGSNNQV; listed as Homo sapiens) [compound 64] | ++ (≥20% = ++) |
| 65 (SLSEKSPEV; listed as Homo sapiens) [compound 65] | ++ (≥20% = ++) |
| 68 (QLMNLIRSV; listed as Homo sapiens) [compound 68] | +++ (≥50% = +++) |
| 70 (GLTEKTVLV; listed as Homo sapiens) [compound 70] | ++ (≥20% = ++) |
| 71 (HMSGKLTNV; listed as Homo sapiens) [compound 71] | ++ (≥20% = ++) |

The remaining lines, values ahead:

| Peptide exchange (MHC class I binding score, peptide exchange yield) | Substance |
| --- | --- |
| ++++ (≥75% = ++++) | 1 (KLQEKIQEL; listed as Homo sapiens) [compound 1] |
| +++ (≥50% = +++) | 5 (GLVDIMVHL; listed as Homo sapiens) [compound 5] |
| ++++ (≥75% = ++++) | 6 (FLNAIETAL; listed as Homo sapiens) [compound 6] |
| +++ (≥50% = +++) | 10 (QLIEKNWLL; listed as Homo sapiens) [compound 10] |
| +++ (≥50% = +++) | 11 (LLDPKTIFL; listed as Homo sapiens) [compound 11] |
| +++ (≥50% = +++) | 12 (RLLDPKTIFL; listed as Homo sapiens) [compound 12] |
| +++ (≥50% = +++) | 16 (SLADLSLLL; listed as Homo sapiens) [compound 16] |
| ++ (≥20% = ++) | 18 (KTASINQNV; listed as Homo sapiens) [compound 18] |
| ++ (≥20% = ++) | 19 (KVFELDLVTL; listed as Homo sapiens) [compound 19] |
| +++ (≥50% = +++) | 25 (LLWGHPRVALA; listed as Homo sapiens) [compound 25] |
| +++ (≥50% = +++) | 26 (VLDGKVAVV; listed as Homo sapiens) [compound 26] |
| +++ (≥50% = +++) | 27 (GLLGKVTSV; listed as Homo sapiens) [compound 27] |
| ++ (≥20% = ++) | 28 (IKVTDPQLLEL; listed as Homo sapiens) [compound 28] |
| ++ (≥20% = ++) | 29 (KMISAIPTL; listed as Homo sapiens) [compound 29] |
| +++ (≥50% = +++) | 31 (GLLETTGLLAT; listed as Homo sapiens) [compound 31] |
| ++ (≥20% = ++) | 33 (TLDRNSLYV; listed as Homo sapiens) [compound 33] |
| ++ (≥20% = ++) | 37 (QIVELIEKI; listed as Homo sapiens) [compound 37] |
| +++ (≥50% = +++) | 41 (IVTEIISEI; listed as Homo sapiens) [compound 41] |
| +++ (≥50% = +++) | 44 (AVFNLVHVV; listed as Homo sapiens) [compound 44] |
| ++ (≥20% = ++) | 57 (TLYPGRFDYV; listed as Homo sapiens) [compound 57] |
| +++ (≥50% = +++) | 58 (HLLGEGAFAQV; listed as Homo sapiens) [compound 58] |
| +++ (≥50% = +++) | 59 (ALADGIKSFLL; listed as Homo sapiens) [compound 59] |
| +++ (≥50% = +++) | 61 (ALYPKEITL; listed as Homo sapiens) [compound 61] |
| +++ (≥50% = +++) | 63 (KLLPMVIQL; listed as Homo sapiens) [compound 63] |
| ++ (≥20% = ++) | 66 (AMFPDTIPRV; listed as Homo sapiens) [compound 66] |
| +++ (≥50% = +++) | 67 (FLIENLLAA; listed as Homo sapiens) [compound 67] |
| ++ (≥20% = ++) | 69 (LKVLKADVVL; listed as Homo sapiens) [compound 69] |
| ++ (≥20% = ++) | 72 (VLSTRVTNV; listed as Homo sapiens) [compound 72] |

Source: patent US9994628B2, “Peptides and combination of peptides for use in immunotherapy against various tumors” (IMMATICS BIOTECHNOLOGIES GMBH, priority 2015, dated 2018)
